B1: 117 (antibody, V domains shown)
VH: EVQLVESGGGLVQPGGSLRLSCAASGFTISSFGIHWVRQAPGKGLEWVAWIAPYGGYTYYADSVKGRFTISADTSKNTAYLQMNSLRAEDTAVYYCARSFFGYFDYWGQGTLVTVSS
VL: DIQMTQSPSSLSASVGDRVTITCRASQDVSNWVAWYQQKPGKAPKLLISYATSLYSGVPSRFSGSGSGTDFTLTISSLQPEDFATYYCQQHSNAPLTFGQGTKVEIKR
notes: Full-length IgG, human kappa
B2: 117_30DE (antibody, V domains shown)
VH: B1 VH with S30D, Y57E
VL: B1 VL
notes: full-length IgG, human kappa
B3: 117_57EE (antibody, V domains shown)
VH: B1 VH with Y57E, T58E
VL: B1 VL
notes: full-length IgG, human kappa
B4: 117_28A (antibody, V domains shown)
VH: B1 VH with T28A
VL: B1 VL
notes: full-length IgG, human kappa
B5: 117_30A (antibody, V domains shown)
VH: B1 VH with S30A
VL: B1 VL
notes: full-length IgG, human kappa
B6: 117_28D (antibody, V domains shown)
VH: B1 VH with T28D
VL: B1 VL
notes: full-length IgG, human kappa
B7: 117_57DE (antibody, V domains shown)
VH: B1 VH with Y57D, T58E
VL: B1 VL
notes: full-length IgG, human kappa
B8: 117 (IgG1) (antibody)
heavy: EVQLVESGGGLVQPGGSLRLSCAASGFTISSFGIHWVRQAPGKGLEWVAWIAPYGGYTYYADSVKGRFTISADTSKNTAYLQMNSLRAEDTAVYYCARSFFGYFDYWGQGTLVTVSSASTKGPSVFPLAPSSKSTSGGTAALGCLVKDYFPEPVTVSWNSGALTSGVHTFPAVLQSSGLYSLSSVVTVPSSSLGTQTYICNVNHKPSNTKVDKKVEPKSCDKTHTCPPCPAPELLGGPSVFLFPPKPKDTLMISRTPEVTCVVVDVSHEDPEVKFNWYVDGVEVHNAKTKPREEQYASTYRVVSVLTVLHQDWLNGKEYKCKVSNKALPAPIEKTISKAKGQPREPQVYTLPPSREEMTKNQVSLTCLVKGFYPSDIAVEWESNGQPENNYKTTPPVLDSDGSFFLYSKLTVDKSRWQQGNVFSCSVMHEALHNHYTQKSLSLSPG
light: DIQMTQSPSSLSASVGDRVTITCRASQDVSNWVAWYQQKPGKAPKLLISYATSLYSGVPSRFSGSGSGTDFTLTISSLQPEDFATYYCQQHSNAPLTFGQGTKVEIKRTVAAPSVFIFPPSDEQLKSGTASVVCLLNNFYPREAKVQWKVDNALQSGNSQESVTEQDSKDSTYSLSSTLTLSKADYEKHKVYACEVTHQGLSSPVTKSFNRGEC
notes: Human IgG1-N297A, kappa
B9: 117 (IgG4) (antibody)
heavy: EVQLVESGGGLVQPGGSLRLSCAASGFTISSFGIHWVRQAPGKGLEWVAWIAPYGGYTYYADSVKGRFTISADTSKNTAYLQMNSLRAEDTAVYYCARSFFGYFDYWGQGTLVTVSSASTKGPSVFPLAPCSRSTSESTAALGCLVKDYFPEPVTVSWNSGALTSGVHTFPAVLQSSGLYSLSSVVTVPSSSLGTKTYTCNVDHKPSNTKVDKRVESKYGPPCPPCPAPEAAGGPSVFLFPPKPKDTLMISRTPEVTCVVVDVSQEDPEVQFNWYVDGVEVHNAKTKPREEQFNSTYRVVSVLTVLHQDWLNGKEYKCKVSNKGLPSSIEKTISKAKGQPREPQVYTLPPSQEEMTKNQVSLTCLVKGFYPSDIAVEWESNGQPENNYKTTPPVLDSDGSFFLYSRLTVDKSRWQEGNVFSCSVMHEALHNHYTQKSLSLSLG
light: B8 light
notes: Human IgG4-S228P/F234A/L235A, kappa
B10: 117_31A (IgG1) (antibody)
heavy: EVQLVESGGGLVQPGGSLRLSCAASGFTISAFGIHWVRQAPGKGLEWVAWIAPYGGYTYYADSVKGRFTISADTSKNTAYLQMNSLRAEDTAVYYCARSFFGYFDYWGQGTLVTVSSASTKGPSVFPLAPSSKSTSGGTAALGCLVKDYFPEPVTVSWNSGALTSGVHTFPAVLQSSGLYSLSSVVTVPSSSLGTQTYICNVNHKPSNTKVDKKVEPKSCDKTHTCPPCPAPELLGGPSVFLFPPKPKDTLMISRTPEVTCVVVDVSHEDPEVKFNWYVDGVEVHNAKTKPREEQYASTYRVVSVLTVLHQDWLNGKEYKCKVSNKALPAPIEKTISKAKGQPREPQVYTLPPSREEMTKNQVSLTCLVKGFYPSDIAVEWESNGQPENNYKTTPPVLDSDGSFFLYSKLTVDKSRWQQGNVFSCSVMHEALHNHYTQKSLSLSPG
light: B8 light
B11: 117_30DA (IgG4) (antibody, V domains shown)
VH: B1 VH with S30D, S31A
VL: B1 VL
notes: Human IgG4-S228P-FALA, kappa
B12: 117_57E (IgG4) (antibody)
heavy: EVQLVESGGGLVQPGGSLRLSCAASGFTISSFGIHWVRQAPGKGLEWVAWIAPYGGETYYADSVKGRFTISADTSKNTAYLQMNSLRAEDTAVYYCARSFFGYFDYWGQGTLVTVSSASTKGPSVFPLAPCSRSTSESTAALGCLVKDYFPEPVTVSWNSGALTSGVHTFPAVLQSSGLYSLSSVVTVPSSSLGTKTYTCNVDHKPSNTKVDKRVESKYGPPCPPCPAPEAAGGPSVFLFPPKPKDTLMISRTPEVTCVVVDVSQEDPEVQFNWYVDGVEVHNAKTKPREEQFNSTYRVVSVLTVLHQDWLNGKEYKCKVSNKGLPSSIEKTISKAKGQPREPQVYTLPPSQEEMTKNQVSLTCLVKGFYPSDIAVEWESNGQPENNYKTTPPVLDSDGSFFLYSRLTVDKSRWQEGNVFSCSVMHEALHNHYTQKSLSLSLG
light: B8 light
notes: Human IgG4-S228P-FALA, kappa
B13: 117_57D (IgG4) (antibody)
heavy: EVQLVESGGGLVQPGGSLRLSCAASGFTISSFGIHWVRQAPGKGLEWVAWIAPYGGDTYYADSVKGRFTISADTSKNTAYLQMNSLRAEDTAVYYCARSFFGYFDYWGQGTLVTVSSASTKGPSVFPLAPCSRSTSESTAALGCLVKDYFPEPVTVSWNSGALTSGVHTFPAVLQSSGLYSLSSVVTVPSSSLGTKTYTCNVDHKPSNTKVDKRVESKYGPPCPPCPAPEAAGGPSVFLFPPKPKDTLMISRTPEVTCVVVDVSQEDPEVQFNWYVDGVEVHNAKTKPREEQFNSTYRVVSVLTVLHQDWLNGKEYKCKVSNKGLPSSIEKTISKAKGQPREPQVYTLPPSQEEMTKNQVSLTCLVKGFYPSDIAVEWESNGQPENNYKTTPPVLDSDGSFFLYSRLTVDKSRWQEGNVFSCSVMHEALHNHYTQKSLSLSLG
light: B8 light
notes: Human IgG4-S228P-FALA, kappa
B14: 117_30DE (IgG4) (antibody, V domains shown)
VH: B1 VH with S30D, Y57E
VL: B1 VL
notes: Human IgG4-S228P-FALA, kappa
B15: 117_57EE (IgG1) (antibody, V domains shown)
VH: B1 VH with Y57E, T58E
VL: B1 VL
B16: 117_31A (IgG4) (antibody)
heavy: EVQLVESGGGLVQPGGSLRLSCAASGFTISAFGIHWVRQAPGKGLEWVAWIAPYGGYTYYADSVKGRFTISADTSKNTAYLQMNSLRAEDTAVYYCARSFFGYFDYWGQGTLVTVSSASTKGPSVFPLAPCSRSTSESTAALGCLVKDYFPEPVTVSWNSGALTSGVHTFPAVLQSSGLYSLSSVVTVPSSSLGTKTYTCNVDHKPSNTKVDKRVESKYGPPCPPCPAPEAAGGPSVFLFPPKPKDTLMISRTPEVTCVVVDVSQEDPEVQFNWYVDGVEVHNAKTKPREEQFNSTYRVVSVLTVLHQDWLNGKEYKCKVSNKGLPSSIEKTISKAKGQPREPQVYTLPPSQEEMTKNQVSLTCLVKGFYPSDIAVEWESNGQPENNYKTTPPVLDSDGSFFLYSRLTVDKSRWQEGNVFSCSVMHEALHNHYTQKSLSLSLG
light: B8 light
B17: 117_DA57D (IgG4) (antibody, V domains shown)
VH: B1 VH with S30D, S31A, Y57D
VL: B1 VL
B18: 117_DA57E (IgG4) (antibody, V domains shown)
VH: B1 VH with S30D, S31A, Y57E
VL: B1 VL
notes: Human IgG4-S228P-FALA, kappa
B19: 117_57D (IgG1) (antibody)
heavy: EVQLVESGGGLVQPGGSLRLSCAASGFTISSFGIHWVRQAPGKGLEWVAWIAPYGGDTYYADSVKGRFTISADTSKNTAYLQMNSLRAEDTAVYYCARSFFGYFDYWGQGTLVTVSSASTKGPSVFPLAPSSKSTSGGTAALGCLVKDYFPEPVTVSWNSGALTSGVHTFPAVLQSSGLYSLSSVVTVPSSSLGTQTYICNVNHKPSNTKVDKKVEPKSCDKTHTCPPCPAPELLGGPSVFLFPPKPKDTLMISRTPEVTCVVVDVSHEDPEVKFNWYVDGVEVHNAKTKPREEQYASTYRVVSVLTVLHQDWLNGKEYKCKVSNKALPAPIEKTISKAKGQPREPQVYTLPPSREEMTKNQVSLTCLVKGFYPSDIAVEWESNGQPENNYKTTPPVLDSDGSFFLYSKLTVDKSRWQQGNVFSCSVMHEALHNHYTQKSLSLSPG
light: B8 light
B20: 117_54E (IgG1) (antibody, V domains shown)
VH: B1 VH with Y54E
VL: B1 VL
B21: 117_30AA (IgG4) (antibody, V domains shown)
VH: B1 VH with S30A, S31A
VL: B1 VL
notes: Human IgG4-S228P-FALA, kappa
B22: 117_57E (IgG1) (antibody)
heavy: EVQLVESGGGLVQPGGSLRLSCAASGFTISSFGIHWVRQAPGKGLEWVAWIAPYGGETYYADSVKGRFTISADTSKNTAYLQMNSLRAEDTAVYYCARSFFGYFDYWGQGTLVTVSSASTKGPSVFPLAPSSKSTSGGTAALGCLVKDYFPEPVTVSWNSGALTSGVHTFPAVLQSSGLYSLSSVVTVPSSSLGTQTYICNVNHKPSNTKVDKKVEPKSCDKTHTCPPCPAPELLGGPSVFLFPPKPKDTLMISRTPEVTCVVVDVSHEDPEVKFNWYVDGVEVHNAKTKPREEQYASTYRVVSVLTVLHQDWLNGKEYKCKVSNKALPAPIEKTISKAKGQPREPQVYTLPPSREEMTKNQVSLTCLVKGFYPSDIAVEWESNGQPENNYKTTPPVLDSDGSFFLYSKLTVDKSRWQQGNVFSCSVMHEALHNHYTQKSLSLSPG
light: B8 light

Residue numbers refer to the chain shown, from its start. Numbers in names are those of the source. Where “and” joins values, the source holds several entries; their conditions need not be identical. Equal values may be shown once.

For one assay, the target named is T1, full-length human CD36-Flag overexpressed on stable F293 cells (human, UniProt P16671 2-472). The experiment in a line: cell-based or functional assay.
T1 sequence (P16671 2-472): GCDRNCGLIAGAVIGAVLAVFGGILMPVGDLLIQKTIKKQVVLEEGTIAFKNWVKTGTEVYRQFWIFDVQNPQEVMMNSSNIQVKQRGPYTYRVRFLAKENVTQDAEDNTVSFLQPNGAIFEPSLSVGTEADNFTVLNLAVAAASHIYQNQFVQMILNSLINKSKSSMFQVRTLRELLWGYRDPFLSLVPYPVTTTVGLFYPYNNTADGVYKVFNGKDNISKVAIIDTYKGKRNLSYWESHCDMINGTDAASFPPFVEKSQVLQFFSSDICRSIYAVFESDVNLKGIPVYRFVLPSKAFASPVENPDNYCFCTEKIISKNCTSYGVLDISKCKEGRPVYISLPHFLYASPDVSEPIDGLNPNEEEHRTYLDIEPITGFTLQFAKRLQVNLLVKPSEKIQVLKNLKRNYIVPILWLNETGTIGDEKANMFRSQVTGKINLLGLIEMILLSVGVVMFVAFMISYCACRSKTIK
For the molecule B1, the “oxLDL uptake IC50 (nM), F293/hCD36” value was 0.702 nM.

For the molecule B2, the “oxLDL uptake IC50 (nM), F293/hCD36” value amounted to 0.299 nM.

For B3, the “oxLDL uptake IC50 (nM), F293/hCD36” value came out at 0.348 nM.

For the next assay, the target named is T2, Recombinant His-tagged human CD36.ECD protein (Sino Biological) (human, UniProt P16671 30-439).
T2 construct: Bought protein; also called hCD36.ECD; hCD36; not shown: His tag
T2 sequence (P16671 30-439 limits assumed): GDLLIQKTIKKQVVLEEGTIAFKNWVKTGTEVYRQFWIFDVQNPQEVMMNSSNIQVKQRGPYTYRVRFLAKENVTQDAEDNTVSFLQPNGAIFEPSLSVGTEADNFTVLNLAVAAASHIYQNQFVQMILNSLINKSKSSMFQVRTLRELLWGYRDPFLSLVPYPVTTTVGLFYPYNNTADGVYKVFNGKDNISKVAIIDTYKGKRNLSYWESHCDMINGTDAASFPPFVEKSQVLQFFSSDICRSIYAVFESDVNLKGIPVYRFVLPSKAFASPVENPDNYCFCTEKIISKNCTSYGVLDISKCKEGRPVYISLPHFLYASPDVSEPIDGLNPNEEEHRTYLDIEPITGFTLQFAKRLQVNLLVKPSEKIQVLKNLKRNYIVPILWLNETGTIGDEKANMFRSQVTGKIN
The experiment in a line: ELISA, coated human CD36.ECD (FIG. 2B). Here is the method: ELISA materials and methods: Recombinant His-tagged human CD36.ECD protein or His-tagged mouse CD36.ECD protein (both from Sino Biological) was immobilized on 96 well microtiter plate at a concentration of 1 μg/mL in Coating Solution (SeraCare) overnight at 4° C. The wells were washed with wash solution (0.05% Tween20 in PBS) and blocked with 1% BSA in PBS. Serial dilutions of anti-CD36 antibodies were added to wells. After incubation at 37° C. for 1 h, the wells were washed with wash solution. Peroxidase-conjugated Goat anti-human kappa Light chain antibody (Sigma) was applied to each well at 37° C. for 1 h incubation. After washing, the wells were developed with TMB substrate for 5-10 min at room temperature and then stopped with 1 N HCl. Thereafter absorbance was measured at 450 nm and 650 nm. EC50 values were calculated through GraphPad Prism7.
The competitor anti-CD36 antibody ONA, which is derived from clone “ONA-0-v1” as disclosed in WO2021176424A1 in hIgG4-S228P-FALA format.
(In general: In an ELISA, binding on a coated surface is turned into a signal by an enzyme label.)
In general, EC50 refers to the concentration giving half of the maximal effect. With B4, the EC50 worked out at 0.129 nM.

On to B5, for which the EC50 was 0.0964 nM.

Consider B6, for which the concentration for a half-maximal effect (EC50) amounted to 0.0735 nM.

For the next assay, the target named is T1, full-length human CD36-Flag …. The experiment in a line: flow cytometry, F293 cells overexpressing human CD36. The source says: (§1) After washing with FACS buffer (2% FBS in PBS), the cells were stained with anti-human IgG-Alexa Fluor 647 and analyzed by Attune NxT Flow Cytometer (Thermo Scientific).
For orientation: In flow cytometry, cells or beads pass a laser one at a time.
For B1, the EC50 is 0.18 µg/mL and 0.123 µg/mL.

For the molecule B2, a half-maximal effect (EC50) was put at 0.107 µg/mL.

B3 gave an EC50 of 0.093 µg/mL.

The molecule B7 gave a half-maximal effective concentration (EC50) of 0.129 µg/mL.

A further assay deals with T3, mouse CD36-His overexpressed on stable F293 cells (mouse, UniProt Q08857 1-472).
T3 construct: Gene segment from Sino Biological; also called F293/mCD36; mCD36; not shown: His tag
T3 sequence (Q08857 whole entry): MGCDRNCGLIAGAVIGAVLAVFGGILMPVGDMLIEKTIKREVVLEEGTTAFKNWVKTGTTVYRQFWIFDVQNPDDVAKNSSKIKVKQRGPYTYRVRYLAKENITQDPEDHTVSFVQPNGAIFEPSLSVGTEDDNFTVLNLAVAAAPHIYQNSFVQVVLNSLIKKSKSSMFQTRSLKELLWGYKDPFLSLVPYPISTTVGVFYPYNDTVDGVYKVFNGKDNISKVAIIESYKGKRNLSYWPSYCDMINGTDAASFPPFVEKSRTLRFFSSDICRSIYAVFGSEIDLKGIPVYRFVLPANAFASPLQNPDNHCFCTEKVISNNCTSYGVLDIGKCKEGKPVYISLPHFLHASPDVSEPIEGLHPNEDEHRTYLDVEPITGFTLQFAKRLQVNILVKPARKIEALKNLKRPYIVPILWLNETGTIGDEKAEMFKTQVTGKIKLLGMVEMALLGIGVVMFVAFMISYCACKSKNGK
Put plainly: flow cytometry, F293 cells overexpressing mouse CD36.
From the text: as §1
On to B1, for which the EC50 was 0.46 µg/mL and 0.361 µg/mL.

B2 returned an EC50 of 0.342 µg/mL.

Turning to B3, the EC50 was determined as 0.319 µg/mL.

Consider B7, for which the midpoint of the response, the EC50, lay at 0.447 µg/mL.

For another assay, the target named is T4, rhesus CD36-His overexpressed on stable F293 cells (rhesus, UniProt P16671 2-472 (human entry)).
T4 construct: Gene segment from Sino Biological; also called F293/rhesusCD36; not shown: His tag
T4 sequence (P16671 other isoform, or with tags, fused parts or gaps): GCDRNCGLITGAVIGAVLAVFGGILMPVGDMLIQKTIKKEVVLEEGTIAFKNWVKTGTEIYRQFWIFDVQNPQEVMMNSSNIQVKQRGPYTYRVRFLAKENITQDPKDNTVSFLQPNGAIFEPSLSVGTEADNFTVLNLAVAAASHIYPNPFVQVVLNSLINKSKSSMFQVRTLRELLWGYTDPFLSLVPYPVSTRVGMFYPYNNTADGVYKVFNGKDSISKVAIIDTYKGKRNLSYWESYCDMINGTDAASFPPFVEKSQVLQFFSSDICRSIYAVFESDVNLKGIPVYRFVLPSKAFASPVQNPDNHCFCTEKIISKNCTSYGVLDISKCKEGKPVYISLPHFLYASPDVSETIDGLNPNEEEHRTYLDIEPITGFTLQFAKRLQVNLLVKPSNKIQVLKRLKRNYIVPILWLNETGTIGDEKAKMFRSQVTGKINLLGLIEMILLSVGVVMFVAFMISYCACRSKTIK
Put plainly: flow cytometry, F293 cells overexpressing rhesus CD36.
From the text: as §1
B1: the 50% effective concentration (EC50) is 0.886 µg/mL and 0.582 µg/mL.

Regarding B2, the EC50 worked out at 0.403 µg/mL.

Regarding B3, the EC50 turned out to be 0.407 µg/mL.

The molecule B7 had an EC50 of 0.529 µg/mL.

The target of a further assay is T2, Recombinant His-tagged human CD36.ECD …. The experiment in a line: BLI (Octet), antibody on AHC sensor, His-tagged hCD36.ECD in solution, 1:1 fit. Here is the method:
BLI assay materials and method: Kinetic rate constants, ka and kd, for binding of the anti-CD36 antibodies to human CD36 were measured by Bio-Layer Interferometry (BLI) (ForteBio Octet RED96). […] Rate constants were calculated by curve fitting analyses (1:1 Langmuir model) of binding response with a 2.5-minute association and 5-minute dissociation interaction time.
In general, Kd refers to the constant that tells how readily two partners part at equilibrium. The koff is a measure of how fast the partners let go of each other. The term kon denotes the second-order rate constant of association. Consider B8, for which the dissociation constant (Kd) is 4.79 nM and 6.72 nM; the koff was 0.00213 s⁻¹ and 0.00235 s⁻¹; the kon is 445000 M⁻¹ s⁻¹ and 350000 M⁻¹ s⁻¹.

B9: the Kd was determined as 6.49 nM, the koff worked out at 0.0025 s⁻¹ and the kon is 386000 M⁻¹ s⁻¹.

In the case of B10, the Kd was determined as 4.05 nM, the koff turned out to be 0.00182 s⁻¹ and the kon came out at 449000 M⁻¹ s⁻¹.

In the case of B11, the Kd came out at 3.91 nM, the koff came out at 0.00133 s⁻¹ and the kon was determined as 339000 M⁻¹ s⁻¹.

B12: the dissociation constant (Kd) was found to be 5.28 nM, the koff is 0.00171 s⁻¹ and the kon amounted to 325000 M⁻¹ s⁻¹.

Regarding B13, the Kd turned out to be 4.96 nM, the koff was 0.00167 s⁻¹ and the kon was 336000 M⁻¹ s⁻¹.

Turning to B14, the Kd came to 3.09 nM, the koff was 0.000981 s⁻¹ and the kon stood at 317000 M⁻¹ s⁻¹.

Regarding B15, the Kd amounted to 4.27 nM, the koff is 0.00155 s⁻¹ and the kon was 364000 M⁻¹ s⁻¹.

On to B16, for which the Kd stood at 4.32 nM, the off-rate constant (koff) was found to be 0.00205 s⁻¹ and the kon was found to be 475000 M⁻¹ s⁻¹.

For the molecule B17, the Kd is 2.64 nM, the koff was 0.000838 s⁻¹ and the kon stood at 317000 M⁻¹ s⁻¹.

For the molecule B18, the Kd turned out to be 2.52 nM, the off-rate (koff) stood at 0.000803 s⁻¹ and the kon was 319000 M⁻¹ s⁻¹.

B19: the Kd was 4.69 nM, the koff was 0.00175 s⁻¹ and the kon stood at 373000 M⁻¹ s⁻¹.

Regarding B20, the Kd is 4.16 nM, the koff is 0.00407 s⁻¹ and the kon was found to be 978000 M⁻¹ s⁻¹.

For the molecule B21, the Kd came out at 5.74 nM, the koff came to 0.00282 s⁻¹ and the kon turned out to be 491000 M⁻¹ s⁻¹.

B22: the Kd is 4.93 nM, the koff stood at 0.00182 s⁻¹ and the kon came to 370000 M⁻¹ s⁻¹.

These data come from patent US20250206837A1 (ELIXIRON IMMUNOTHERAPEUTICS HONG KONG, published 2025).
